Measurements reported in patent publication US20260242478A1 (published 2026).
Where no end group is shown, it is not given here.

B1: Phage-1969 (peptide)
peptide: VEKWCKPTWMCEMV
notes: tested as crude clonal phage supernatant
B2: Phage-2016 (peptide)
peptide: PIRLCIPEWMCEMV
notes: Peptide-180 library clone, tested as clonal phage supernatant
B3: Phage-2011 (peptide)
peptide: DTHMCRPLWMCTGL
modifications: cysteine pairing not given here; also: fused to phage pIII, pIII sequence and linker not given here
notes: Peptide-180 library clone
B4: Phage-2021 (peptide)
peptide: TEIWCIPPWMCDGQ
notes: as for B2
B5: Phage-2013 (peptide)
peptide: LEKWCIPAWMCEVF
notes: as for B2
B6: Phage-2007 (peptide)
peptide: QDMWCIPPWMCWAQ
modifications: cysteine pairing not given here; also: fused to phage pIII, pIII sequence and linker not given here
notes: Peptide-180 library clone
B7: Phage-2008 (peptide)
peptide: HPKWCTPAWMCVML
modifications: cysteine pairing not given here; also: fused to phage pIII, pIII sequence and linker not given here
notes: Peptide-180 library clone
B8: Phage-1972 (peptide)
peptide: PWHWCIPEWMCAEY
notes: as for B1
B9: Phage-1975 (peptide)
peptide: FDNWCKPSWMCAGL
notes: as for B1
B10: Phage-2015 (peptide)
peptide: VVQLCSPVWMCEGF
notes: as for B2
B11: Phage-2017 (peptide)
peptide: MVKWCFPEWMCWTD
notes: as for B2
B12: Phage-2018 (peptide)
peptide: LDKWCTPSWMCYGM
notes: as for B2
B13: Phage-1971 (peptide)
peptide: VMNWCTPVWMCQGF
notes: as for B1
B14: Phage-1973 (peptide)
peptide: FDKWCIPEWMCAVL
notes: as for B1
B15: Phage-2009 (peptide)
peptide: EFVKCVPAWMCEWT
modifications: cysteine pairing not given here; also: fused to phage pIII, pIII sequence and linker not given here
notes: Peptide-180 library clone
B16: Phage-2006 (peptide)
peptide: LPHWCTPLWMCEGF
modifications: cysteine pairing not given here; also: fused to phage pIII, pIII sequence and linker not given here
notes: Peptide-180 library clone
B17: Phage-1979 (peptide)
peptide: LPKWCTPEWMCIGF
notes: as for B1
B18: Phage-1974 (peptide)
peptide: LVKWCIPEWMCEVL
notes: as for B1
B19: Phage-1977 (peptide)
peptide: MAQWCTPAWMCSGF
notes: as for B1
B20: Phage-2012 (peptide)
peptide: GEKWCIPPWMCITN
notes: as for B2
B21: Phage-2019 (peptide)
peptide: IVKWCTPPWMCTIY
notes: as for B2
B22: Phage-1980 (peptide)
peptide: LDKWCIPPWMCYSI
notes: as for B1
B23: Phage-1976 (peptide)
peptide: TMHWCIPQWMCETG
notes: as for B1
B24: Phage-2020 (peptide)
peptide: VIKLCSPPWMCIGL
notes: as for B2
B25: Phage-2010 (peptide)
peptide: LQKLCIPEWMCLNM
modifications: cysteine pairing not given here; also: fused to phage pIII, pIII sequence and linker not given here
notes: Peptide-180 library clone
B26: Phage-2005 (peptide)
peptide: VTKWCIPEWMCEYI
modifications: cysteine pairing not given here; also: fused to phage pIII, pIII sequence and linker not given here
notes: Peptide-180 library clone
B27: Phage-2014 (peptide)
peptide: PERWCIPVWMCESG
notes: as for B2
B28: Phage-1970 (peptide)
peptide: EFKWCTPSWMCAHL
notes: as for B1
B29: Phage-1978 (peptide)
peptide: SERWCIPTWMCQET
notes: as for B1

Experiments:
[1] = biological target: T1, Anti-PSMA Fab (SEQ ID NOs: 19, 20); assay: phage binding ELISA; biotinylated PSMA Fab captured on neutravidin plate, clonal phage supernatant, anti-M13 HRP detection
T1 construct: Biotinylated and captured on neutravidin coated plates in the phage ELISA; also called 006 PSMA Fab
Method: (§1) Clonal phage were harvested as crude supernatants and screened via standard ELISAs. […] Prior to the addition of clonal phage. wells were incubated with blocking buffer and PSMA antigen or blocking buffer alone. Without washing or aspirating, clonal phage supernatants were then added to the wells and incubated for a short time. Wells were then washed followed by detection of bound phage using a horse radish conjugated anti-M13 antibody.

[2] = biological target: T1, Anti-PSMA Fab (SEQ ID NOs: 19, 20); assay: phage binding ELISA on captured PSMA Fab; wells pre-incubated with PSMA antigen as competitor
Method: as §1

[3] = biological target: T2, Anti-PSMA Fab (SEQ ID NOs: 19, 20); assay: phage binding ELISA; Fab-coated wells pre-incubated with PSMA antigen as competitor, anti-M13-HRP detection;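 further: clonal phage supernatants screened, with reference wells given blocking buffer only (no PSMA antigen) before phage were added for a brief incubation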
T2 construct: Biotinylated PSMA Fab captured on neutravidin coated plates in the phage ELISA; also called 006 PSMA Fab
Method: as §1

[4] = biological target: T2, Anti-PSMA Fab (SEQ ID NOs: 19, 20); assay: phage binding ELISA; biotinylated PSMA Fab on neutravidin plate, clonal phage, anti-M13-HRP detection
Method: as §1

[5] = biological target: T3, Anti-PSMA Fab (SEQ ID NOs: 19, 20); assay: phage ELISA; biotinylated PSMA Fab on neutravidin plate pre-incubated with PSMA antigen (competitor), anti-M13 HRP detection
T3 construct: In the phage ELISA the Fab was biotinylated and captured on neutravidin coated plates; also called 006 PSMA Fab
Method: as §1

[6] = biological target: T3, Anti-PSMA Fab (SEQ ID NOs: 19, 20); assay: phage ELISA; biotinylated PSMA Fab on neutravidin plate, clonal phage supernatant, anti-M13 HRP detection;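 further: wells preincubated with PSMA antigen in blocking buffer or with blocking buffer only before clonal phage were added for a short incubation, then bound phage detected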
Method: as §1

Row | Binder | Anti-PSMA Fab (SEQ ID NOs: 19, 20) signal [1] | Anti-PSMA Fab signal in the presence of PSMA [2] | Phage binding ELISA, Anti-PSMA Fab signal in the presence of PSMA [5] | Phage binding ELISA, Anti-PSMA Fab signal [6] | further results
1 | B1 | 1.9 | 0.0976 | – | – | –
2 | B2 | – | – | – | – | Anti-PSMA Fab signal in the presence of PSMA [3]: 0.0575; Anti-PSMA Fab (SEQ ID NOs: 19, 20) signal [4]: 1.83
3 | LEKLCIPSWMCEGM (cysteine pairing not given here; also: displayed as fusion to phage pIII, Peptide-180 library clone) [Phage-2002] | – | – | 0.0942 | 1.85 | –
4 | B3 | – | – | 0.0778 | 1.84 | –
5 | B4 | – | – | – | – | Anti-PSMA Fab signal in the presence of PSMA [3]: 0.0686; Anti-PSMA Fab (SEQ ID NOs: 19, 20) signal [4]: 1.82
6 | EVKWCTPAWMCEGF (cysteine pairing not given here; also: displayed as fusion to phage pIII, Peptide-180 library clone) [Phage-2001] | – | – | 0.0605 | 1.85 | –
7 | B5 | – | – | – | – | Anti-PSMA Fab signal in the presence of PSMA [3]: 0.0967; Anti-PSMA Fab (SEQ ID NOs: 19, 20) signal [4]: 1.84
8 | B6 | – | – | 0.126 | 1.85 | –
9 | B7 | – | – | 0.0691 | 1.85 | –
10 | B8 | 1.9 | 0.083 | – | – | –
11 | IDNWCRPLWMCHGF (cysteine pairing not given here; also: displayed as fusion to phage pIII, Peptide-180 library clone) [Phage-2004] | – | – | 0.0907 | 1.85 | –
12 | B9 | 1.89 | 0.0863 | – | – | –
13 | B10 | – | – | – | – | Anti-PSMA Fab signal in the presence of PSMA [3]: 0.086; Anti-PSMA Fab (SEQ ID NOs: 19, 20) signal [4]: 1.83
14 | B11 | – | – | – | – | Anti-PSMA Fab signal in the presence of PSMA [3]: 0.136; Anti-PSMA Fab (SEQ ID NOs: 19, 20) signal [4]: 1.83
15 | B12 | – | – | – | – | Anti-PSMA Fab signal in the presence of PSMA [3]: 0.106; Anti-PSMA Fab (SEQ ID NOs: 19, 20) signal [4]: 1.83
16 | IPKWCTPAWMCESM (cysteine pairing not given here; also: displayed as fusion to phage pIII, Peptide-180 library clone) [Phage-1999] | – | – | 0.0609 | 1.86 | –
17 | B13 | 1.9 | 0.115 | – | – | –
18 | NFHLCTPQWMCTGF (cysteine pairing not given here; also: displayed as fusion to phage pIII, Peptide-180 library clone) [Phage-1997] | – | – | 0.0973 | 1.86 | –
19 | B14 | 1.9 | 0.0682 | – | – | –

Row | Binder | Anti-PSMA Fab (SEQ ID NOs: 19, 20) signal [1] | Anti-PSMA Fab signal in the presence of PSMA [2] | Phage binding ELISA, Anti-PSMA Fab signal in the presence of PSMA [5] | Phage binding ELISA, Anti-PSMA Fab signal [6] | further results
20 | B15 | – | – | 0.0768 | 1.84 | –
21 | B16 | – | – | 0.0658 | 1.85 | –
22 | B17 | 1.89 | 0.113 | – | – | –
23 | B18 | 1.9 | 0.0751 | – | – | –
24 | B19 | 1.89 | 0.0721 | – | – | –
25 | B20 | – | – | – | – | Anti-PSMA Fab signal in the presence of PSMA [3]: 0.0697; Anti-PSMA Fab (SEQ ID NOs: 19, 20) signal [4]: 1.84
26 | B21 | – | – | – | – | Anti-PSMA Fab signal in the presence of PSMA [3]: 0.153; Anti-PSMA Fab (SEQ ID NOs: 19, 20) signal [4]: 1.83
27 | HEMWCRPAWMCDGF (cysteine pairing not given here; also: displayed as fusion to phage pIII, Peptide-180 library clone) [Phage-2000] | – | – | 0.0635 | 1.85 | –
28 | B22 | 1.89 | 0.0602 | – | – | –
29 | B23 | 1.89 | 0.25 | – | – | –
30 | IDKWCIPAWMCVSN (cysteine pairing not given here; also: displayed as fusion to phage pIII, Peptide-180 library clone) [Phage-1998] | – | – | 0.0815 | 1.86 | –
31 | B24 | – | – | – | – | Anti-PSMA Fab signal in the presence of PSMA [3]: 0.0946; Anti-PSMA Fab (SEQ ID NOs: 19, 20) signal [4]: 1.82
32 | B25 | – | – | 0.0655 | 1.84 | –
33 | B26 | – | – | 0.0658 | 1.85 | –
34 | FEKWCVPIWMCRDS (cysteine pairing not given here; also: displayed as fusion to phage pIII, Peptide-180 library clone) [Phage-2003] | – | – | 0.161 | 1.85 | –
35 | B27 | – | – | – | – | Anti-PSMA Fab signal in the presence of PSMA [3]: 0.0731; Anti-PSMA Fab (SEQ ID NOs: 19, 20) signal [4]: 1.83
36 | B28 | 1.9 | 0.128 | – | – | –
37 | B29 | 1.89 | 0.0819 | – | – | –
